{"source": "paper PMC7047192", "about": "(EBioMedicine, 2020)", "biological_target": "Flag-EGFR purified from 293T cells (UniProt P00533 25-1210)", "assay": "co-IP"}
{"binder": "His-CDC34 (enzyme) MARPLVPSSQKALLLELKGLQEEPVEGFRVTLVDEGDLYNWEVAIFGPPNTYYEGGYFKARLKFPIDYPYSPPAFRFLTKMWHPNIYETGDVCISILHPPVDDPQSGELPSERWNPTQNVRTILLSVISLLNEPNTFSPANVDASVMYRKWKESKGKDREYTDIIRKQVLGTKVDAERDGVKVPTTLAEYCVKTKAPAPDEGSDLFYDDYYEDGEVEEEADSCFGDDEDDSGTEES", "values": [{"measurement": "binding result", "result": "binds"}]}
